Data: patent publication US20070105771A1 (Y S THERAPEUTICS, published 2007)

Key:
[1] = molecular target: T1, Purified recombinant human CD26 (rhDipeptidyl peptidase IV), R&D Systems CAT #1180-SE (human, UniProt P27487 29-766); assay: SPR (Biacore), IgG1
T1 construct: Bought recombinant protein; also called hu-CD26; soluble human CD26
Method: Fabs produced in E. coli as described below were diluted in PBS in a concentration of ˜0.5 μM for the assay. A typical recording included a 3 minute period of injection of the Fab followed by a period of 15 minutes of dissociation, and analysis was performed based on the raw data of the binding curves accordingly.
Analyses thereof were performed using Biacore® as described in Example 1, excepting the binding partners were the rhuMAbs noted above.

[2] = molecular target: T1, Purified recombinant human CD26 …; assay: SPR (Biacore)

T1 sequence (P27487 29-766 limits assumed): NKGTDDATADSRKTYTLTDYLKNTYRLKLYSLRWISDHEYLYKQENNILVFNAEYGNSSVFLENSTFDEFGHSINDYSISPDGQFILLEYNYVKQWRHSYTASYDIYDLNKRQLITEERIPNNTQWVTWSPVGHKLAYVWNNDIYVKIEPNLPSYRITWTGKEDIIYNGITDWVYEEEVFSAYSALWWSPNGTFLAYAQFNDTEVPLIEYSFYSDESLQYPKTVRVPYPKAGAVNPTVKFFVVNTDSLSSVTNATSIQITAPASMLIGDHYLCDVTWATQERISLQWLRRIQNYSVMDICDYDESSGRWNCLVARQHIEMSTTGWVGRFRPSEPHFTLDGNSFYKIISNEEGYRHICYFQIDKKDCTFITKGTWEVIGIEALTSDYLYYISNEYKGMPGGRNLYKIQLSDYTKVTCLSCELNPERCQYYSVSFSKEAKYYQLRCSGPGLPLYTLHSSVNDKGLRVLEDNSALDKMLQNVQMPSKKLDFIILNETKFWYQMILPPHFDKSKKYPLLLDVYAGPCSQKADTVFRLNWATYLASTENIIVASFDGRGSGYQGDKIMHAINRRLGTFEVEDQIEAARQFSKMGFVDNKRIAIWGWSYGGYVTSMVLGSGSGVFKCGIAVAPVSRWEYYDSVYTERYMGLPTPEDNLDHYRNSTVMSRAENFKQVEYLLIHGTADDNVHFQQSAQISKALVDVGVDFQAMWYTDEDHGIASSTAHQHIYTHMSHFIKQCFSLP

-fold against rhuMAb 409 [1]: 3.7 | Kd [1]: 0.22 nM | Kd [2]: 0.244 nM | koff [2]: 6.63e-05 s⁻¹ | kon [2]: 272000 M⁻¹ s⁻¹
B1: rhuMAb 411 (antibody, human IgG1, kappa, V domains shown)
VH: EVQLVESGAGVKQPGGTLRLTCTASGFSLTTYGVHWVRQAPGKGLEWVGVIWGDGRTDYDAAFMSRVTISKDTSKSTVYLQMNSLRAEDTAVYYCMRNRHDWFDYWGQGTTVTVSS
VL: DILLTQSPSSLSATPGERATITCRASQGIRNNLNWYQQKPGQAPRLLIYYSSNLQSGVPSRFSGSGSGTDFTLTISRLQPEDVAAYYCQQSIKLPFTFGSGTKVEIKR
notes: also called X411
